Assay results reported in US20030182691A1.

Assays:
[1] = molecular target: trypsin (serine protease); test: phage ELISA, trypsin coated in well, phage diluted 1 in 100, anti-M13/HRP detection
[2] = molecular target: T1, papain (cysteine protease) (UniProt P00784); test: phage ELISA, papain coated in well, phage diluted 1 in 100, anti-M13/HRP detection
T1 sequence (looked up): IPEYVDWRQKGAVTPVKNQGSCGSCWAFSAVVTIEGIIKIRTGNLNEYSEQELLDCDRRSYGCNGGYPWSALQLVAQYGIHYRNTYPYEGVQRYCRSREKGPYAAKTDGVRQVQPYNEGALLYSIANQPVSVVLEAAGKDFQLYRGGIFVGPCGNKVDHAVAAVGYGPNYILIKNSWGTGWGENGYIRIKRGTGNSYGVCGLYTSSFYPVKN

[3] = molecular target: POP-1 protein: Brassica napus Sta 44G(2) / Sitophilus zeamais SCPc1 protease translational fusion (Brassica napus; Sitophilus zeamais); test: cell-based or functional assay
[4] = molecular target: T1, papain (cysteine protease); test: cell-based or functional assay
[5] = molecular target: T2, POV-1 protein: Brassica napus Sta 44G(2) / Onchocerca volvulus OV7 protease inhibitor translational fusion, P22085
T2 chain: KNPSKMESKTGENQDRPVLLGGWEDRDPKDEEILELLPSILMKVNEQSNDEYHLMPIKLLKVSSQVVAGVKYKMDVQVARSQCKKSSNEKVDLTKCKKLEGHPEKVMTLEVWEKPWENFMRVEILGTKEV

[6] = molecular target: T3, OV7/GST (cysteine protease inhibitor OV7 conjugated to GST), P22085
T3 chain: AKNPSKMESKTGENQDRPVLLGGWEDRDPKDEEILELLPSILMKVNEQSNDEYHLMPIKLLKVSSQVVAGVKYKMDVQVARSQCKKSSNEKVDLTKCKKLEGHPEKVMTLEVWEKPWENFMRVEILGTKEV

Molecule: M13 wild type or control phage not displaying any foreign protein
- O.D.410 (O.D. at 410 nm) [1]: 0.026
- O.D.410 (O.D. at 410 nm) [2]: 0.043

B1: POV-1 protein: Brassica napus Sta 44G(2) / Onchocerca volvulus OV7 protease inhibitor translational fusion (protein)
chain: T2 chain
- Percent Loss of Viability (Alexander staining of pollen, F1 plant POP 2 X POV 20 No. 2) [3]: 19%
- Percent Loss of Viability (Alexander staining of pollen, F1 plant POP 2 X POV 20 No. 3) [3]: 21%
- Percent Loss of Viability (Alexander staining of pollen, F1 plant POP 12 X POV 20 No. 1) [3]: 66%
- Percent Loss of Viability (Alexander staining of pollen, F1 plant POP 12 X POV 20 No. 4) [3]: 58%
- Percent Loss of Viability (Alexander staining of pollen, F1 plant POP 12 X POV 25 No. 1) [3]: 26%
- Percent Loss of Viability (Alexander staining of pollen, F1 plant POP 12 X POV 25 No. 2) [3]: 19%

B2: recombinant onchocystatin (OV7), cysteine protease inhibitor (protein)
chain: T3 chain
- Average Pollen Tube Length (tobacco pollen in vitro, 42 µM papain + 30 µM onchocystatin) [4]: 80 µm
- Pollen Germination (tobacco pollen in vitro, 42 µM papain + 30 µM onchocystatin) [4]: 69%

B3: papain (cysteine protease) (protein)
chain: T1 sequence (looked up)
- percentage of papain protease activity (substrate Pyr-Phe-Leu-pNA, 410 nm) relative to the non-transformed control plant extract [5]: 53% to 61%
- percentage of papain protease activity (substrate Pyr-Phe-Leu-pNA, 410 nm) relative to the non-transformed control plant extract [6]: 2%
